Experimental data reported in PMC4263443.

Experiments:
[1] = molecular target: recombinant S5aΔVWA (human); assay: ITC
[2] = molecular target: recombinant full-length S5a (human) (UniProt P55036); assay: ITC
Sequence of UniProt P55036 (P55036 whole entry): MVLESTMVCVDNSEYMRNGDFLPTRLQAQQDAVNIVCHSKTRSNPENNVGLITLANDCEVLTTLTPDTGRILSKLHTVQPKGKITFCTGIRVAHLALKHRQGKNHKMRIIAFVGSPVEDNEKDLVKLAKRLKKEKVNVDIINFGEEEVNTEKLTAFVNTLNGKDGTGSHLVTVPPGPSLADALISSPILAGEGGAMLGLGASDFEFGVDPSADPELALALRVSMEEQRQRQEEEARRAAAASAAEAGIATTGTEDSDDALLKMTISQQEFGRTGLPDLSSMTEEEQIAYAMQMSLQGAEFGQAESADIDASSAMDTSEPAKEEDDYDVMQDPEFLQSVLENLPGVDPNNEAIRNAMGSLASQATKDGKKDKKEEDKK

Kd [1] [µM] | Kd [2] [µM] | Substance
84 |  | monoubiquitin (from UniProt P0CG47 1-76) (natural protein)
 | 112 | monoubiquitin (from UniProt P0CG47 1-76) (natural protein; other documents disagree on this pair)
